Here are results for two molecules from US20210309754A1 (JCR PHARMACEUTICALS, published 2021).

For the assay, the target named is T1, recombinant monkey TfR (r monkey TfR: Sino Biological Inc.), cynomolgus monkey TfR extracellular region with … (cynomolgus monkey (Macaca fascicularis), UniProt Q5RDH6 89-760 (Pongo abelii entry)).
T1 construct: Bought (Sino Biological); also called r monkey TfR-ECD (Histag); not shown: histidine tag attached to the N-terminus
T1 chain: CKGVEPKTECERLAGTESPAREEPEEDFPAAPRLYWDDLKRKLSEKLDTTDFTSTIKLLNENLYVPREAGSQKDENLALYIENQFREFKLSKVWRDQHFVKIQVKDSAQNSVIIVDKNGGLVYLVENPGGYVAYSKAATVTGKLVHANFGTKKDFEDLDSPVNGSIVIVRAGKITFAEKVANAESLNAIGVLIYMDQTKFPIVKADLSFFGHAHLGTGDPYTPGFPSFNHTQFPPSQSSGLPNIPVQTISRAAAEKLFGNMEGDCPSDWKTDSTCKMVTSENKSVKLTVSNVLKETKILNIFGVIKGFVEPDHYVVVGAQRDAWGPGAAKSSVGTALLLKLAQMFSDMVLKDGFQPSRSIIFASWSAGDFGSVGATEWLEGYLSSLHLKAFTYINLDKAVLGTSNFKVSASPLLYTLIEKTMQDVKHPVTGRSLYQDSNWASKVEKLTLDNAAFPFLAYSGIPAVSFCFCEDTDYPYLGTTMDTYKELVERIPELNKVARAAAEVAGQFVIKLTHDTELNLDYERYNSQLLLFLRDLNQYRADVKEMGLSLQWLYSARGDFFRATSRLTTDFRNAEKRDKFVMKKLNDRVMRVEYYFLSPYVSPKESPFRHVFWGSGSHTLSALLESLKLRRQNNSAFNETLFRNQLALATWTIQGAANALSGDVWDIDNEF
Description: BLI, Octet RED96, His-TfR ECD on Ni-NTA sensor. How it is done: By measuring the variations of this shift between the interfering waves, determination of the number of the molecules bound to the layer of the biomolecules immobilized to the sensor tip surface and kinetic analysis of it can be performed in real time. The measurement was performed according generally to the operating manual attached to Octet RED96. As a human TfR, a recombinant human TfR (r human TfR: Sino Biological Inc.) was used, which had the amino acid sequence of the hTfR extracellular region, i.e., the cysteine residue at the position 89th from the N-terminal side to the phenylalanine at the C-terminus, of the amino acid sequence set forth as SEQ ID NO:1, with a histidine tag attached to the N-terminus. As a monkey TfR, a recombinant monkey TfR (r monkey TfR: Sino Biological Inc.) was used, which had the amino acid sequence of the cynomolgus monkey TfR extracellular region, i.e., the cysteine residue at the position 89th from the N-terminal side to the phenylalanine at the C-terminus, of the amino acid sequence set forth as SEQ ID NO:2, with a histidine tag attached to the N-terminus. […]
On the technique in general: In BLI a coated tip is dipped into the sample, and binding shifts an interference pattern.

B1: anti-hTfR antibody No. 2 (antibody, V domains shown)
VH: EVQLQESGAELVRPGVSVKISCKGSGYTFTDYVMHWVRQSHAKSLEWIGVISTYYGHGSYNQRFKGKATMTVDKSSSTAYLELVRLTSEDSAIYYCVRGGYGSSSLAGNFDVWGAGTTVTVSS
VL: DIVLTQSPATLSVTPGDSVSLSCRASQSISNNLQWYQQKSHESPRLLIKYASQSISGIPSRFSGSGSGTDFTLSINSVETEDFGMYFCQQSNSWPRTFGAGTKLELKR
notes: Mouse monoclonal antibody from a hybridoma, purified on Protein G; also called mouse anti-hTfR antibody No. 2; antibody of Clone 2 line
Consider B1, for which the koff is 1.75e-05 s⁻¹.

B2: anti-hTfR antibody No. 6 (antibody, V domains shown)
VH: EVQLQESGPGLVAPSQSLSITCSVSGFSLSTYGVYWVRQPPGKGLEWLGIIWGDGSTNYHSALISRLTISKDNSKSQVFLKLNSLQTADTATYYCAKPDDVWGAGTTVTVSS
VL: DIVLTQTPSSLSASLGERVSLTCRASQEISGYLSWLQQKPDGTIKRLIYAASTLDSGVPKRFSGSRSGSDYSLTISSLESEDFADYYCLQYSSYPRTFGGGTKLEIK
notes: Mouse monoclonal antibody from a hybridoma, purified on Protein G; also called mouse anti-hTfR antibody No. 6; antibody of Clone 6 line
On to B2, for which the Kd turned out to be 0.477 nM.

One may read the koff as a measure of how fast the partners let go of each other. For orientation: Kd means the constant that tells how readily two partners part at equilibrium.
